Measurements: patent publication US20120077731A1 (Ablynx, published 2012)

Key:
[1] = molecular target: T1, Human plasma sIL-6R (human, UniProt P08887 20-355, limits assumed); assay: plasma potency assay, human plasma, 2.4 nM IL6; blocked ligand IL-6
T1 construct: also called plasma-derived human IL-6R
T1 sequence (looked up): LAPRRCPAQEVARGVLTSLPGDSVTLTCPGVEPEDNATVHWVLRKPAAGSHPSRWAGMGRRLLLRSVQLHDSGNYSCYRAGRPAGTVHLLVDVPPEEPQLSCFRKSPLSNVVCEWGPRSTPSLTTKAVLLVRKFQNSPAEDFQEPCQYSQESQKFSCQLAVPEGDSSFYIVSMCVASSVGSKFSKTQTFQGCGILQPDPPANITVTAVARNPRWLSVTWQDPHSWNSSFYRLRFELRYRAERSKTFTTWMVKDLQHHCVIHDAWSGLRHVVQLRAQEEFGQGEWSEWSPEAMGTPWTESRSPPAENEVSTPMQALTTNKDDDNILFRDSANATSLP

[2] = molecular target: T2, IL-11R/Fc (UniProt Q14626 23-370); assay: competitive binding ELISA: IL6R20A11 (0.05 nM) pre-incubated with a series of the receptor; free IL6R20A11 captured on sIL-6R and detected via anti-His
T2 construct: not shown: Fc part, not described
T2 sequence (looked up): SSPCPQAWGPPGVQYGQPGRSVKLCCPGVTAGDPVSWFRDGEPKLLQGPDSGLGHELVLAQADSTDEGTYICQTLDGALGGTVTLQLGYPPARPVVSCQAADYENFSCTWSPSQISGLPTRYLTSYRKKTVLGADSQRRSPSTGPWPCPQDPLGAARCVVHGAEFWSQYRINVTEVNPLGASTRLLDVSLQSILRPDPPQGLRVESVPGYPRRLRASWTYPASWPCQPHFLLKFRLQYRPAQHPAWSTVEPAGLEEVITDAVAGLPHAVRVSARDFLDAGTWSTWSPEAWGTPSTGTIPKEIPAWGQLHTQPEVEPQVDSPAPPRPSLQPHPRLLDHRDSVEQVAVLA

[3] = molecular target: T3, CNTF-R (UniProt P26992 23-346, limits assumed); assay: as above
T3 sequence (looked up): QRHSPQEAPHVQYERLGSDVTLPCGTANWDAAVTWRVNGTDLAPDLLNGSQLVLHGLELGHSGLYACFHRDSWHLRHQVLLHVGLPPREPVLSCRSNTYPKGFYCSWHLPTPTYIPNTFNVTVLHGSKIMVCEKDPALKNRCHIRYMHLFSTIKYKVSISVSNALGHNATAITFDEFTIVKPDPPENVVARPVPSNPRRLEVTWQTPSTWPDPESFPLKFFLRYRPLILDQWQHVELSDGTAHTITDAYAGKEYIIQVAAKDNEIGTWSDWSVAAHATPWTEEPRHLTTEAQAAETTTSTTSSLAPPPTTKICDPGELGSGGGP

[4] = molecular target: T4, Human membrane IL-6R on cells (human, UniProt P08887 20-468); assay: flow cytometry, human PBL, granulocytes donor 2
T4 construct: whole, on cells; also called cell-surface expressed human IL-6R
T4 sequence (looked up): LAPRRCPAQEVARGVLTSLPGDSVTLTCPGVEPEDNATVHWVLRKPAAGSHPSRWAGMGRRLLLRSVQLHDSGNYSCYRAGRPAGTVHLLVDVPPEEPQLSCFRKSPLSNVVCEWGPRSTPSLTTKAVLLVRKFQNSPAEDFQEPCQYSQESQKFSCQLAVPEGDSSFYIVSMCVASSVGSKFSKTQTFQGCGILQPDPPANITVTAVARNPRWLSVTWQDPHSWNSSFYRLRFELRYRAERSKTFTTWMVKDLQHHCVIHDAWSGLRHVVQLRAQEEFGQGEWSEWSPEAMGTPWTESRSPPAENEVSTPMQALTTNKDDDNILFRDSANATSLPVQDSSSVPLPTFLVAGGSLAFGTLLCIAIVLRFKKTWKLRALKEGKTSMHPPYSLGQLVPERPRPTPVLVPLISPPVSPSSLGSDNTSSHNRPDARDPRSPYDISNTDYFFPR

[5] = molecular target: T4, Human membrane IL-6R on cells; assay: flow cytometry, CHO cells expressing human IL-6R, 4PL fit
[6] = molecular target: T5, Cyno IL-6R (cynomolgus monkey, UniProt A0A2K5WN54 60-396); assay: Biacore T100, IL-6R captured by BN-12
T5 construct: also called cynomolgus monkey IL-6R; recombinant cyno sIL-6R
T5 sequence: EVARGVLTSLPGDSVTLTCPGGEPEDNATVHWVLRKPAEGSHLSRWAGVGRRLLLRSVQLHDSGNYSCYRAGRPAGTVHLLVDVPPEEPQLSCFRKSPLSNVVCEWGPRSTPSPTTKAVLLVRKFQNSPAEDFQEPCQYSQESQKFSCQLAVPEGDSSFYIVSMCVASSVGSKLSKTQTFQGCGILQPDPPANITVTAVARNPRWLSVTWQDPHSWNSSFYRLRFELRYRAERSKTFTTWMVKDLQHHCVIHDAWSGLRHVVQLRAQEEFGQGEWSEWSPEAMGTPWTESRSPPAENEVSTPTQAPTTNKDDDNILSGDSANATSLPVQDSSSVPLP

[7] = molecular target: T6, Human soluble IL-6R (human, UniProt P08887 20-358); assay: Biacore T100, IL-6R captured by BN-12
T6 construct: Soluble recombinant form; biotinylated in some assays; also called hIL-6R; human IL-6R
T6 sequence (looked up): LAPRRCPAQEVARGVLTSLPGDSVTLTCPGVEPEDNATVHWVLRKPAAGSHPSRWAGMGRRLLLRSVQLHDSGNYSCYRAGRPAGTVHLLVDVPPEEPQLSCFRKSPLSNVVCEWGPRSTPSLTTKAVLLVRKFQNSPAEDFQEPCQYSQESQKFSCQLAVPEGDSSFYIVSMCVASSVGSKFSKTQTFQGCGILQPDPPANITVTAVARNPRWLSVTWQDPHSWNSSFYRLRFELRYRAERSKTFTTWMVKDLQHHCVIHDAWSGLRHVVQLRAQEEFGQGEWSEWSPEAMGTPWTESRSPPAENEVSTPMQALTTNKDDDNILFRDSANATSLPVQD

[8] = molecular target: T4, Human membrane IL-6R on cells; assay: cell-based or functional assay

B1: PMP20A11 (VHH)
VHH: EVQLVESGGGLVQPGGSLRLSCAASGSVFKINVMAWYRQAPGKGRELVAGIISGGSTSYADSVKGRFTISRDNAKNTLYLQMNSLRPEDTAVYYCAFITTESDYDLGRRYWGQGTLVTVSS
notes: also called IL6R20A11; IL6R300; not shown: c-myc and (His)6 tags
For B1, the IC50 [1] was 0.09 nM, the binding result [2] was “no binding (tested: 5 nM (log conc 0.7))” and the binding result [3] was “no binding (tested: 5 nM (log conc 0.7))”. It also gave an EC50 [4] of 5.61 nM, an EC50 [5] of 1.4 nM and a kon [6] of 1e+06 M⁻¹ s⁻¹. The kon [7] was 1e+06 M⁻¹ s⁻¹ and the “IC50 (nM), TF-1 proliferation at 5000 IU/mL IL-6” value [8] was 15.2 nM.
